# In article PMC5458272 (2017):
# B1: Recombinant His-tagged Aurora-A (enzyme)
# chain: MDRSKENCISGPVKATAPVGGPKRVLVTQQFPCQNPLPVNSGQAQRVLCPSNSSQRIPLQAQKLVSSHKPVQNQKQKQLQATSVPHPVSRPLNNTQKSKQPLPSAPENNPEEELASKQKNEESKKRQWALEDFEIGRPLGKGKFGNVYLAREKQSKFILALKVLFKAQLEKAGVEHQLRREVEIQSHLRHPNILRLYGYFHDATRVYLILEYAPLGTVYRELQKLSKFDEQRTATYITELANALSYCHSKRVIHRDIKPENLLLGSAGELKIADFGWSVHAPSSRRTTLCGTLDYLPPEMIEGRMHDEKVDLWSLGVLCYEFLVGKPPFEANTYQETYKRISRVEFTFPDFVTEGARDLISRLLKHNPSQRPMLREVLEHPWITANSSKPSNCQNKESASKQS
# Biological target: GST
# Assay: SPR
binder,measurement,value
B1,Kd,> 5 µM
